# T1: human NL1(–A–B)_(ECTO), biotinylated and immobilised for SPR (human, biotin on the Avitag (in vivo biotinylation by BirA))
# T1 chain: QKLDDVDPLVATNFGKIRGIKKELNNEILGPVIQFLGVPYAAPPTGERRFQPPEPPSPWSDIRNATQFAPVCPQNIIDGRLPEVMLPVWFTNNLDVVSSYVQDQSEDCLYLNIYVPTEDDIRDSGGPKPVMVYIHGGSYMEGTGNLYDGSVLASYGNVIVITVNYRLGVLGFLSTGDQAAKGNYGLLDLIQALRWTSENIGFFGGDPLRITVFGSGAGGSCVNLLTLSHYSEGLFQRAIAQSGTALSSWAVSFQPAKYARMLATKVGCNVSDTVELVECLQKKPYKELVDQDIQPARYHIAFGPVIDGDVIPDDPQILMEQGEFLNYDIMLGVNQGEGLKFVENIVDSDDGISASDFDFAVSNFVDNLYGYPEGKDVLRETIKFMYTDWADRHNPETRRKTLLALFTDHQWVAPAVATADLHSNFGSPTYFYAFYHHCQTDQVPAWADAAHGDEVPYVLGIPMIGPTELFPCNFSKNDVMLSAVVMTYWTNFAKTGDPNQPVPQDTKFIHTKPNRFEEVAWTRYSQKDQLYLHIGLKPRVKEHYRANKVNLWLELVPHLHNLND
# T2: human NL4_(ECTO) (NL4(X); Gln42-Glu602), immobilised for SPR (human, UniProt Q8N0W4-1 42-602, biotin on the Avitag (in vivo biotinylation by BirA))
# T2 chain: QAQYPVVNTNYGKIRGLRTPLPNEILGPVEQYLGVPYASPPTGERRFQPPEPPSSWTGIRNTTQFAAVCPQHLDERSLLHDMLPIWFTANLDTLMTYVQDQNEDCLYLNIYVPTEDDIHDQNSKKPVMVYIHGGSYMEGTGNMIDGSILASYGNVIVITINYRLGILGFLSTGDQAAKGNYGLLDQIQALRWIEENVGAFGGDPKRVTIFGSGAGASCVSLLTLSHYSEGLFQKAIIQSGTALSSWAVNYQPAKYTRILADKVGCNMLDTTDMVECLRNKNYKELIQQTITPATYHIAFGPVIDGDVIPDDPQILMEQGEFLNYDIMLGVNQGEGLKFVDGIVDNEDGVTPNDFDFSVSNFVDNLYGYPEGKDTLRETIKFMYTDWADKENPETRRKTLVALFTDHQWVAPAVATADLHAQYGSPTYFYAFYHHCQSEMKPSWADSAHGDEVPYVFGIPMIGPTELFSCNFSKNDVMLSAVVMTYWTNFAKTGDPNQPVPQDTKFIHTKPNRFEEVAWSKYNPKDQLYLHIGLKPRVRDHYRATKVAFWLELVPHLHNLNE
# T3: human NL1(–A–B)_(ECTO) Arg450Cys, immobilised for SPR (human, biotin on the Avitag (in vivo biotinylation by BirA))
# T3 chain: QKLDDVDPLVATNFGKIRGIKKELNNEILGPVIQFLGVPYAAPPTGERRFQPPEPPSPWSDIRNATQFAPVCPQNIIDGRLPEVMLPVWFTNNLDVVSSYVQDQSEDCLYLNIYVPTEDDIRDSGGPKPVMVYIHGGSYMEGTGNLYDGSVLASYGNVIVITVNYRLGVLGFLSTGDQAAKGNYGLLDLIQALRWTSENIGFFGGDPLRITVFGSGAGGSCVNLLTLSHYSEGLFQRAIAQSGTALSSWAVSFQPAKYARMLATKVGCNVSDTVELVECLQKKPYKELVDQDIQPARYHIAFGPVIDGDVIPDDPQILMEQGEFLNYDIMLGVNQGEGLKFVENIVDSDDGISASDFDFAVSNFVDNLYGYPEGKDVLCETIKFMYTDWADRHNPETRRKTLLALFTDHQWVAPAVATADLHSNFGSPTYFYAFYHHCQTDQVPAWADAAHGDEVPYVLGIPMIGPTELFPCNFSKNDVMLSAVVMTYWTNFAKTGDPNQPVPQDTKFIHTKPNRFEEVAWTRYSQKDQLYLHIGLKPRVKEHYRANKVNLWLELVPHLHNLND
# B1: human β-neurexin-1 LNS6 domain with SS4 (β-NRX1_(LNS6)(+4)) (domain or fragment)
# chain: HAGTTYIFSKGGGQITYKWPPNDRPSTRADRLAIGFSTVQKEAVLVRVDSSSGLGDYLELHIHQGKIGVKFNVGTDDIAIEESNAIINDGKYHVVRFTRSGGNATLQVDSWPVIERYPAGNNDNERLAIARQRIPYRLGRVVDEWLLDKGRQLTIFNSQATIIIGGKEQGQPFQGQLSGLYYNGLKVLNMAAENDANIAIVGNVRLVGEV
# B2: human MDGA1 extracellular domain (MDGA1_(ECTO); Gln19-Lys925) (domain or fragment)
# chain: QGVYAPAQAQIVHAGQACVVKEDNISERVYTIREGDTLMLQCLVTGHPRPQVRWTKTAGSASDKFQETSVFNETLRIERIARTQGGRYYCKAENGVGVPAIKSIRVDVQYLDEPMLTVHQTVSDVRGNFYQEKTVFLRCTVNSNPPARFIWKRGSDTLSHSQDNGVDIYEPLYTQGETKVLKLKNLRPQDYASYTCQVSVRNVCGIPDKAITFRLTNTTAPPALKLSVNETLVVNPGENVTVQCLLTGGDPLPQLQWSHGPGPLPLGALAQGGTLSIPSVQARDSGYYNCTATNNVGNPAKKTVNLLVRSMKNATFQITPDVIKESENIQLGQDLKLSCHVDAVPQEKVTYQWFKNGKPARMSKRLLVTRNDPELPAVTSSLELIDLHFSDYGTYLCMASFPGAPVPDLSVEVNISSETVPPTISVPKGRAVVTVREGSPAELQCEVRGKPRPPVLWSRVDKEAALLPSGLPLEETPDGKLRLERVSRDMSGTYRCQTARYNGFNVRPREAQVQLNVQFPPEVEPSSQDVRQALGRPVLLRCSLLRGSPQRIASAVWRFKGQLLPPPPVVPAAAEAPDHAELRLDAVTRDSSGSYECSVSNDVGSAACLFQVSAKAYSPEFYFDTPNPTRSHKLSKNYSYVLQWTQREPDAVDPVLNYRLSIRQLNQHNAVVKAIPVRRVEKGQLLEYILTDLRVPHSYEVRLTPYTTFGAGDMASRIIHYTEPINSPNLSDNTCHFEDEKICGYTQDLTDNFDWTRQNALTQNPKRSPNTGPPTDISGTPEGYYMFIETSRPRELGDRARLVSPLYNASAKFYCVSFFYHMYGKHIGSLNLLVRSRNKGALDTHAWSLSGNKGNVWQQAHVPISPSGPFQIIFEGVRGPGYLGDIAIDDVTLKKGECPRKQTDPNK
# B3: human β-neurexin-1 LNS6 domain lacking SS4 (β-NRX1_(LNS6)(–4); His85-Val265) (domain or fragment)
# chain: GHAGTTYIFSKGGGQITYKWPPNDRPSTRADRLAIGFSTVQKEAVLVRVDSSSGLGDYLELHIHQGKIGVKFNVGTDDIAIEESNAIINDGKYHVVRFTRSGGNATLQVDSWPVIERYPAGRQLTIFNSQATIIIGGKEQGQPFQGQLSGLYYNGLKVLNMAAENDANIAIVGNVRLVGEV
# B4: human MDGA2 extracellular domain (MDGA2_(ECTO); Gln21-Lys927) (domain or fragment)
# chain: QGVYAPPTVRIVHSGLACNIEEERYSERVYTIREGETLELTCLVTGHPRPQIRWTKTAGSASDRFQDSSVFNETLRITNIQRHQGGRYYCKAENGLGSPAIKSIRVDVYYLDDPVVTVHQSIGEAKEQFYYERTVFLRCVANSNPPVRYSWRRGQEVLLQGSDKGVEIYEPFFTQGETKILKLKNLRPQDYANYSCIASVRNVCNIPDKMVSFRLSNKTASPSIKLLVDDPIVVNPGEAITLVCVTTGGEPAPSLTWVRSFGTLPEKTVLNGGTLTIPAITSDDAGTYSCIANNNVGNPAKKSTNIIVRALKKGRFWITPDPYHKDDNIQIGREVKISCQVEAVPSEELTFSWFKNGRPLRSSERMVITQTDPDVSPGTTNLDIIDLKFTDFGTYTCVASLKGGGISDISIDVNISSSTVPPNLTVPQEKSPLVTREGDTIELQCQVTGKPKPIILWSRADKEVAMPDGSMQMESYDGTLRIVNVSREMSGMYRCQTSQYNGFNVKPREALVQLIVQYPPAVEPAFLEIRQGQDRSVTMSCRVLRAYPIRVLTYEWRLGNKLLRTGQFDSQEYTEYAVKSLSNENYGVYNCSIINEAGAGRCSFLVTGKAYAPEFYYDTYNPVWQNRHRVYSYSLQWTQMNPDAVDRIVAYRLGIRQAGQQRWWEQEIKINGNIQKGELITYNLTELIKPEAYEVRLTPLTKFGEGDSTIRVIKYSAPVNPHLREFHCGFEDGNICLFTQDDTDNFDWTKQSTATRNTKYTPNTGPNADRSGSKEGFYMYIETSRPRLEGEKARLLSPVFSIAPKNPYGPTNTAYCFSFFYHMYGQHIGVLNVYLRLKGQTTIENPLWSSSGNKGQRWNEAHVNIYPITSFQLIFEGIRGPGIEGDIAIDDVSIAEGECAKQDLATK
# Columns and labels:
# Test in all cases: SPR
# [1] = biological target: T1, human NL1(–A–B)_(ECTO), biotinylated …
# [2] = biological target: T2, human NL4_(ECTO) (NL4(X)); …
# [3] = biological target: T3, human NL1(–A–B)_(ECTO) Arg450Cys, …
# [4] = biological target: human NL3(–A)_(ECTO) Arg451Cys, immobilised for SPR (human, UniProt Q9NZ94-1 38-636, –A: nothing between Asp152 and Asp193 | R451C, biotin on the Avitag (in vivo biotinylation by BirA))
# human NL3(–A)_(ECTO) Arg451Cys, immobilised for SPR, sequence (Q9NZ94 other isoform, or with tags, fused parts or gaps –A: nothing between Asp152 and Asp193 | R451C | R451C): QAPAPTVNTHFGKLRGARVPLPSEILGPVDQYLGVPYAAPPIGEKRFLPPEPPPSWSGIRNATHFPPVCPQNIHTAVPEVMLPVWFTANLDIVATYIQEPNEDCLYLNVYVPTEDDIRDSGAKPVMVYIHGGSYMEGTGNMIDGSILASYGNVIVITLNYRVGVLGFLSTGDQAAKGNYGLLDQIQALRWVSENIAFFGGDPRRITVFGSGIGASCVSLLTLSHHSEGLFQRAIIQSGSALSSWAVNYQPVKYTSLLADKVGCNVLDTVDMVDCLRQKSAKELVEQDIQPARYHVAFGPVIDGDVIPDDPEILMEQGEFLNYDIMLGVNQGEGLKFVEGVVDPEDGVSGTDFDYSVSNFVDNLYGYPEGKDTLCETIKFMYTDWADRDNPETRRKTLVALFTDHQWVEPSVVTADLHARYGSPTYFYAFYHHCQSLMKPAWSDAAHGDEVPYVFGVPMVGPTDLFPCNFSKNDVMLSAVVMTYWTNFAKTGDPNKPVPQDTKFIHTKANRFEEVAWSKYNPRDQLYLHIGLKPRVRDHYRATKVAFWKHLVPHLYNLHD
Binder,Kd [1],Kd [2],Kd [3],Kd [4]
B1,2.59 µM,9.66 µM,2.7 µM,47.9 µM
B2,1.72 µM,14.7 µM,,
B3,,2.49 µM,0.76 µM,10.8 µM
B4,,14.4 µM,,
